One variant from IntAct's records for PubMed 21212807 can be followed below.

B1: TRAF family member-associated NF-kappa-B activator (Homo sapiens), Q92844 (parent)
chain: MDKNIGEQLNKAYEAFRQACMDRDSAVKELQQKTENYEQRIREQQEQLSLQQTIIDKLKSQLLLVNSTQDNNYGCVPLLEDSETRKNNLTLDQPQDKVISGIAREKLPKVRRQEVSSPRKETSARSLGSPLLHERGNIEKTFWDLKEEFHKICMLAKAQKDHLSKLNIPDTATETQCSVPIQCTDKTDKQEALFKPQAKDDINRGAPSITSVTPRGLCRDEEDTSFESLSKFNVKFPPMDNDSTFLHSTPERPGILSPATSEAVCQEKFNMEFRDNPGNFVKTEETLFEIQGIDPIASAIQNLKTTDKTKPSNLVNTCIRTTLDRAACLPPGDHNALYVNSFPLLDPSDAPFPSLDSPGKAIRGPQQPIWKPFPNQDSDSVVLSGTDSELHIPRVCEFCQAVFPPSITSRGDFLRHLNSHFNGET
partner: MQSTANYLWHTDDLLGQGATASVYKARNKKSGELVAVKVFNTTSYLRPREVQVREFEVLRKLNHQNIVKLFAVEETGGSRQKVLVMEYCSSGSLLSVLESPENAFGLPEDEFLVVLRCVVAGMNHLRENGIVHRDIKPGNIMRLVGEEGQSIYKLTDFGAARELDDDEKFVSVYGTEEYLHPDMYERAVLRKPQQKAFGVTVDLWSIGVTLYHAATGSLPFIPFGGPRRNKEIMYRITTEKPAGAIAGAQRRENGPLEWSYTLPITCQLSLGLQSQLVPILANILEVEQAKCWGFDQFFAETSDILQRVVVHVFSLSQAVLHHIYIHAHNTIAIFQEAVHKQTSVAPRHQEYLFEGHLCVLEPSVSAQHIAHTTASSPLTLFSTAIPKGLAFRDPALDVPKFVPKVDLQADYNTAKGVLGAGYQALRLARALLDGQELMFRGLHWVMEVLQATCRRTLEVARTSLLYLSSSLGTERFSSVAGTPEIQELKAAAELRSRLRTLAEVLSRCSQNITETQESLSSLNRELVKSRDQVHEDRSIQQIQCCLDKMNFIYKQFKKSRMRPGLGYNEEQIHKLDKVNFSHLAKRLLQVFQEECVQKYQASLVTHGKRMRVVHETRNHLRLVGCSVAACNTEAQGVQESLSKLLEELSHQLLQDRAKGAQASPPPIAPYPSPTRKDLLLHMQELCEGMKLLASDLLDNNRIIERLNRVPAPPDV

Variants of B1 are the subject of this test. The conditions noted are these: with ikke_human IKBKE.
Take K282R: the “effect of a mutation on the interaction” value is “increasing interaction”.
